Data from PMC12819141, “RNase MRP subunit composition and role in 40S ribosome biogenesis” (Nature Structural & Molecular Biology, 2025).

Molecular target: T1, RPP29 (coexpressed with RMP24 in bacteria) (human, UniProt O95707 1-220)
T1 construct: RPP29 (POP4), human; codon-optimized bicistronic cassette with C18orf21/RMP24 in pGEX-6P-1; The pGEX-6P-1 vector adds GST to one of the two chains; Elution was by PreScission protease or by reduced glutathione; also called POP4; source: E. coli BL21-DE3, coexpressed with RMP24, purified (Glutathione-Agarose, S200 increase)
T1 sequence: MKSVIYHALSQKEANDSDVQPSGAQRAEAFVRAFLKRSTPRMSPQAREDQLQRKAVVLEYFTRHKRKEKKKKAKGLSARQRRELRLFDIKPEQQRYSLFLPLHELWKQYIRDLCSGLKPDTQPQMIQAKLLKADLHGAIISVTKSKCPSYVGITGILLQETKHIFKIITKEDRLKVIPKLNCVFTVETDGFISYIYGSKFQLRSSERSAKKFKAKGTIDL
Experiment: SEC; RMP24 and RPP29 coexpressed in E. coli, isolated on Glutathione-Agarose, then passed over a Superdex S200 increase 10/300 GL column in 25 mM Tris HCl pH 8, 100 mM NaCl, 1 mM DTT; peak fractions on Coomassie-stained SDS–PAGE and LC–MS
Conditions: both partners purified

binding result: binds
B1: RMP24 (coexpressed with RPP29 in bacteria) (natural protein, human, UniProt Q32NC0 1-220, looked up)
chain: MRQKHYLEAAARGLHDSCPGQARYLLWAYTSSHDDKSTFEETCPYCFQLLVLDNSRVRLKPKARLTPKIQKLLNREARNYTLSFKEAKMVKKFKDSKSVLLITCKTCNRTVKHHGKSRSFVSTLKSNPATPTSKLSLKTPERRTANPNHDMSGSKGKSPASVFRTPTSGQSVSTCSSKNTSKTKKHFSQLKMLLSQNESQKIPKVDFRNFLSSLKGGLLK
notes: C18orf21 (RMP24), human; codon-optimized bicistronic cassette with RPP29 in pGEX-6P-1; The pGEX-6P-1 vector adds GST to one of the two chains; also called C18orf21; full-length RMP24; source: E. coli BL21-DE3, coexpressed with RPP29, purified (Glutathione-Agarose, S200 increase)
